Results on 2 substances are retold here after paper doi:10.1101/2023.03.06.531322.

The target of the test is TafA (HAH_0240), mature major subunit of tat-fimbriae (tafi) of Haloarcula hispanica (Haloarcula hispanica). Kind of test: co-sedimentation.

Regarding “TafC (HAH_0242), minor component of tafi of Haloarcula hispanica (natural protein)”, the molar ratio in filament preparations (molecules per 100 molecules of TafA) was found to be 1. The result for “TafE (HAH_0239), minor component of tafi of Haloarcula hispanica (natural protein)” reads 5.
